The numbers were not newly measured in patent US20070184095A1, “OSMIUM COMPOUNDS FOR THE TREATMENT OF PSORIASIS” (priority 2006, published 2007), which cites them from elsewhere.

On to Adalimumab, for which, for the setting “human, in vivo”, the “increase in incidence of serious infections” value is on record as “two-fold” and the most notable complication result is on record as “reactivation of tuberculosis”.
“efalizumab: humanized monoclonal antibody against the CD11a subunit of LFA-1”: under “human, in vivo”, the “patients who developed hemolytic anaemia” value is given as “four”, the “patients with immune-mediated thrombocytopenia (platelet counts at or below 52,000 cells/microliter)” value is 0.3% and the “subjects developing antiefalizumab antibodies” value is on record as “approximately 5%”. The “overall incidence of hospitalization for infections” value (placebo 1.2) is reported as 1.6 per 100 patient-years.
For the substance “infliximab: chimeric (mouse-human) IgG1 monoclonal antibody, which binds to and inactivates TNF-α”, the reported adverse events result (small percentage of treated patients) is “pneumonia, tuberculosis, lymphoma, drug-induced lupus and hepatotoxicity”.
